Among the data in paper PMC1977788 (1992) are Kd values, retold here.

Experiment [1] has as its target T1, EGFR (Homo sapiens, UniProt P00533). Put plainly: 125I-EGF whole-cell saturation binding, ZR-PR-LT cells, Woolf analysis.
The target in experiment [2] is T1, EGFR. The experiment in a line: 125I-EGF whole-cell saturation binding, ZR-75-9a1 FCSdcc 4 weeks, Woolf analysis.
Experiment [3] has as its target T1, EGFR. Put plainly: 125I-EGF whole-cell saturation binding, ZR-75-9a1 FCSdcc 2 weeks, Woolf analysis.
Experiment [4] concerns the target T1, EGFR. The experiment in a line: 125I-EGF whole-cell saturation binding, ZR-75-1 cells, Woolf analysis.
For experiment [5], the target named is T1, EGFR. Put plainly: 125I-EGF whole-cell saturation binding, ZR-75-9a1 FCSdcc 1 week, Woolf analysis.
For experiment [6], the target named is T1, EGFR. The experiment in a line: 125I-EGF whole-cell saturation binding, ZR-75-9a1 FCSdcc 2 years, Woolf analysis.
The target of experiment [7] is T1, EGFR. The experiment in a line: 125I-EGF whole-cell saturation binding, ZR-PR-LT cells + acid wash, Woolf analysis.
Experiment [8] deals with T1, EGFR. The experiment in a line: 125I-EGF whole-cell saturation binding, ZR-PR-LT cells + suramin pretreatment, Woolf analysis.
Experiment [9] concerns the target T1, EGFR. The experiment in a line: 125I-EGF whole-cell saturation binding, ZR-75-9a1 8 uM cells, Woolf analysis.

B1: EGF (protein)
chain: NSYPGCPSSYDGYCLNGGVCMHIESLDSYTCNCVIGYSGDRCQTRDLRWWELR
For the molecule B1, the Kd – broadly, the free concentration of one partner at which half of the binding sites on the other are occupied at equilibrium, for simple one-to-one binding – in [1] came out at 0.26 nM; in experiment [2], 0.14 nM; in experiment [3] it was 0.28 nM; in experiment [4] it was 0.23 nM; in experiment [5], 0.37 nM; in experiment [6], 0.18 nM. The values for the Kd in experiment [7], in [8] and in experiment [9] were 0.21 nM, 0.31 nM and 0.19 nM, respectively.
